# According to the RNAGym collection of RNA variant scans (doi:10.7554/elife.80360):
# B1: Hammerhead Ribozyme (parent)
# chain: ACCGGAUGUGCUUUCCGGUCUGAUGAGUCCGUGAGGACGAAACAG
# Variants of: B1
# Assay: self-cleavage, relative activity (ratio to wild type); higher = more cleavage; co-transcriptional
row,Variant,self-cleavage
1,ACCGGAUGUGCUUUCCGGUCUGAUGAGUCCGCUAGGACGAAACAG,1.37
2,ACCGGCUUUGCUUUCCGGUCUGAUGAGUCCGUGAGGACGAAACAG,0.633
3,ACCGGAGGUGCUUGCCGGUCUGAUGAGUCCGUGAGGACGAAACAG,0.831
4,ACCGCAUGUGCUUUCCGGUCUGAUGAGUCCGUGAGGACGAAUCAG,0.328
5,ACCGGAUGCGCUUUCCGGUCGGAUGAGUCCGUGAGGACGAAACAG,0.72
6,ACCGGAUGUGCUUUCCGGUCUGAUGAGUCUGUGAGGACGAAAAAG,0.34
7,ACCGGAUGUGCUUUCCGGUCUGAUGAGUCUGUGAGGACGAAAUAG,0.546
8,ACCGGAUGUGCUUUCCGGUCUGAUGUGUCCGUGAGGACGAAACAG,0.848
9,ACCGGAUGUGCUUUCCGGUCUGAUGAGGCCGAGAGGACGAAACAG,0.83
10,ACCGGAUGUUCUUUCCGGUCUGAUGAGUCCGUGAGGACGAAUCAG,0.304
11,ACCGGAUGUACUUUCCGGUCUGAUGAGUCCGUGAGGACGAAUCAG,0.38
12,ACCGGAUUUGCUUUCCGGUCUGAGGAGUCCGUGAGGACGAAACAG,1.11
13,AACGGAUGUGCUUUCCGGUCUGAUGAGUCCGUGAGGACGUAACAG,0.35
14,ACCGCAUGUGCUUUCCGGUAUGAUGAGUCCGUGAGGACGAAACAG,0.271
15,ACCGGAUGUGCUUUCCGGUAUGAUGAGUCCGUGAAGACGAAACAG,0.446
16,ACCGGAAGUGCUUACCGGUCUGAUGAGUCCGUGAGGACGAAACAG,1.15
17,ACCGGAUGUGGUUUCCGGUCUGAUGAAUCCGUGAGGACGAAACAG,0.839
18,ACCGGAUGUGCUUUCGGGUCUGAUGCGUCCGUGAGGACGAAACAG,0.305
19,ACCGGAGGUGCUUUCCGGUGUGAUGAGUCCGUGAGGACGAAACAG,0.386

row,Variant,self-cleavage
1,ACUGGAUGUGCUUUCCGGUCUGAUGAGUCCGUGAGGACGAACCAG,0.406
2,ACCGGAUGUGCUUUCCGGUCUUAGGAGUCCGUGAGGACGAAACAG,0.361
3,AGCUGAUGUGCUUUCCGGUCUGAUGAGUCCGUGAGGACGAAACAG,0.219
4,ACCGGAUGUGCUUUCCGGUCUGAGGAGUCCGAGAGGACGAAACAG,1.08
5,ACCGGAUGUGCUUUCCGGUCUCAUGAGUCCGUGAGGACGAACCAG,0.309
6,ACCGGAUGUGCUUACCGGUCUGAUGAUUCCGUGAGGACGAAACAG,0.405
7,ACCGGUUGUGCUUUCCGGUCUGAUGAGUCCGUGAGGACGAAACAU,0.468
8,ACCGUAUGUGCUUUCCGGUGUGAUGAGUCCGUGAGGACGAAACAG,0.333
9,ACCGGAUGUGCUUUCCGGUCUGAAGAGUCCGUGAGGACGAACCAG,0.363
10,AGCGGAUGUGCUUUCCGGUCUGAUGAGUCCGCGAGGACGAAACAG,0.332
11,ACGGGAUGUGCUUUCCGGUCUGAUGAGUCCGCGAGGACGAAACAG,0.433
12,ACCGGAUGUGCUUUGCGGUCUGAUGAGUCCGUGAGGCCGAAACAG,0.364
13,ACCGGGUGUGCUUUCCGGUCUGAUGAGUCCGUGAGGCCGAAACAG,0.656
14,ACCGGAUGUGAUUUCCGGUCUGAUGAGUCCGUAAGGACGAAACAG,1.22
15,AACGGAUGUGCUUUCCGGUCUGAUGAGUCAGUGAGGACGAAACAG,0.473
16,ACCGGAUGCGCUUUCCGGUCUGAUGAGUCCGCGAGGACGAAACAG,1.49
17,ACCAGAUGUGCUUUCCGGUCUGAUGAGUCCGUCAGGACGAAACAG,0.549
18,ACUGGAUGUGCUUUCCGGUCUGAUGAGUCCGUGAGGUCGAAACAG,0.794
19,GCCGGAUGUGCUGUCCGGUCUGAUGAGUCCGUGAGGACGAAACAG,1.97

row,Variant,self-cleavage
1,ACCGGAUGUGCUUUCCGGUCUGCUGAGUCCGUGAAGACGAAACAG,0.397
2,AACGGAUGUGCUUUCCGGUCCGAUGAGUCCGUGAGGACGAAACAG,0.402
3,ACCGGAUGUGGUUUCCGGUUUGAUGAGUCCGUGAGGACGAAACAG,0.695
4,ACCGGAUGUGCUUUCCCGUCUGAUGAGUCAGUGAGGACGAAACAG,0.458
5,ACCGGAUGUGCUUUCCUGUCGGAUGAGUCCGUGAGGACGAAACAG,0.387
6,ACCGGAUGUGCUGCCCGGUCUGAUGAGUCCGUGAGGACGAAACAG,0.598
7,UCCGGAUGUGCUUUCCGGUCUGCUGAGUCCGUGAGGACGAAACAG,0.385
8,ACCGGAUGUGCUUUCCGGUCUGAUGAGUUCGUGAGGACGAAACCG,0.44
9,ACCGGAUGUGCUUUCCGGUCUGAUGGGUCCGUGAGGACGACACAG,0.338
10,ACCGGAUGUGUUUUCCGGUCUGAUGAGACCGUGAGGACGAAACAG,0.768
11,ACCGAAUGUGCUUUCCGGUCUGAUGAGUCCGUGAGGACCAAACAG,0.328
12,ACCGGAUGUGCUUUCCGGUCUGAUGAGUGCGUCAGGACGAAACAG,0.654
13,AACGGAUGUGCUUUCCGGUCUGAUGAGUCCGUGAGGACGAAAAAG,0.333
14,ACCGGAUGUGCUUUCCGGUCUGAUGAGUCUUUGAGGACGAAACAG,1.01
15,ACCGGAUGUGCUUUCCGGUCUGUUGAGUCCGUGAGGACGAAACAU,0.461
16,ACCGGAUAUGCUUUCCGGUCUGAUGAGUCCGUGAGGACGAAAUAG,0.381
17,ACCGGAUGUGCUUACCGGUCUGUUGAGUCCGUGAGGACGAAACAG,0.272
18,ACGGGAUGUGCUUUCCGGUCUGAUUAGUCCGUGAGGACGAAACAG,0.329
19,ACCGGAUGUGCUUUCCGGUCUGAUGAGUCCGUAAGGACGUAACAG,0.525
